This series in a line: Investigation of pH of bivalirudin solutions (degradation at pH 2-6). The settings on record: 1 mg/ml aqueous solution. Type of series: physicochemical. On the procedure:
The degradation pathway of bivalirudin was investigated by preparing aqueous solutions at 1 mg/ml of bivalirudin at pH 2, 3, 4, 5 and 6 (Table 1). […] The excessive degradation observed was attributed to a change in pH during storage wherein the final pH of the bivalirudin compositions was about 7.

For the substance “D-Phenylalanyl-L-Prolyl-L-Arginyl-L-Prolyl-Glycyl-Glycyl-Glycyl-Glycyl-L-Asparagyl-Glycyl-L-Aspartyl-L-Phenylalanyl-L-Glutamyl-L-Glutamyl-L-Isoleucyl-L-Prolyl-L-Glutamyl-L-Glutamyl-L-Tyrosyl-L-Leucine trifluoroacetate (salt) hydrate [bivalirudin]”, the “Asp^9-Bivalirudin” value (pH 2, 25° C./1 month) turned out to be 2.58 % AUC; the “Asp^9-Bivalirudin” value (pH 2, Initial) worked out at 0.45 % AUC; the “Asp^9-Bivalirudin” value (pH 3, 25° C./1 month) is 2.71 % AUC; the “Asp^9-Bivalirudin” value (pH 3, Initial) was determined as 0.76 % AUC; the “Asp^9-Bivalirudin” value (pH 4, 25° C./1 month) was 1.26 % AUC; the “Asp^9-Bivalirudin” value (pH 4, Initial) is given as 0.59 % AUC. Further, the “Asp^9-Bivalirudin” value stood at 0.84 % AUC (pH 5, Initial) and 1.19 % AUC (pH 6, Initial). Also, the “Total Degradants” value (pH 2, 25° C./1 month) is recorded as 64.8 % AUC; the “Total Degradants” value (pH 2, Initial) is listed as 0.6 % AUC; the “Total Degradants” value (pH 3, 25° C./1 month) is on record as 37.7 % AUC; the “Total Degradants” value (pH 3, Initial) was found to be 0.9 % AUC; the “Total Degradants” value (pH 4, 25° C./1 month) was 51.1 % AUC; the “Total Degradants” value (pH 4, Initial) is on record as 3.1 % AUC. The “Total Degradants” value runs as follows: (pH 5, Initial) 3.4 % AUC; (pH 6, Initial) 4.7 % AUC. Also, the “Asp^9-Bivalirudin / Total Degradants” value (pH 5, 25° C./1 month) was “complete degradation” and the “Asp^9-Bivalirudin / Total Degradants” value (pH 6, 25° C./1 month) is “complete degradation”.

For the origin of these results see patent US7803762B1, “Ready-to-use bivalirudin compositions” (The Medicines Company, priority 2009, dated 2010).
